{"source": "the RNAGym collection of RNA variant scans (doi:10.7554/elife.80360)", "parents": {"B1": {"name": "Twister Ribozyme (parent)", "chain": "AACACUGCCAAUGCCGGUCCCAAGCCCGGAUAAAAGUGGAGGGGGCGG"}}}
{"variants_of": "B1", "test": "self-cleavage, relative activity (ratio to wild type); higher = more cleavage; co-transcriptional"}
{"variant": "C8G C9A", "self-cleavage": 0.0971}
{"variant": "C8A G44U", "self-cleavage": 0.271}
{"variant": "C8A G44C", "self-cleavage": 0.276}
{"variant": "C8G G36U", "self-cleavage": 0.11}
{"variant": "C8G G36A", "self-cleavage": 0.129}
{"variant": "C9A C20U", "self-cleavage": 0.15}
{"variant": "C9A C20A", "self-cleavage": 0.0653}
{"variant": "C9G G45A", "self-cleavage": 0.444}
{"variant": "C8G A35C", "self-cleavage": 0.478}
{"variant": "C8G A35U", "self-cleavage": 0.566}
{"variant": "C8G A35G", "self-cleavage": 0.222}
{"variant": "C8G U18A", "self-cleavage": 0.0816}
{"variant": "C8A G36U", "self-cleavage": 0.108}
{"variant": "C8A C20U", "self-cleavage": 0.0847}
{"variant": "C8U C27U", "self-cleavage": 0.288}
{"variant": "C8U C27G", "self-cleavage": 0.0565}
{"variant": "C8U C27A", "self-cleavage": 0.0891}
{"variant": "C9A C26A", "self-cleavage": 0.11}
{"variant": "C9A C26G", "self-cleavage": 0.0708}
{"variant": "C8U G48U", "self-cleavage": 0.678}
{"variant": "C8G G13A", "self-cleavage": 0.405}
{"variant": "C8G G13C", "self-cleavage": 0.0604}
{"variant": "C8G A40G", "self-cleavage": 0.146}
{"variant": "C8G G41U", "self-cleavage": 0.129}
{"variant": "C9G G24A", "self-cleavage": 0.0902}
{"variant": "C8U G24U", "self-cleavage": 0.177}
{"variant": "C9G A35C", "self-cleavage": 0.556}
{"variant": "C9G C20G", "self-cleavage": 0.0438}
{"variant": "C9G C20A", "self-cleavage": 0.0864}
{"variant": "C8A U18G", "self-cleavage": 0.0805}
{"variant": "C8A U18A", "self-cleavage": 0.111}
{"variant": "C9U G28U", "self-cleavage": 0.504}
{"variant": "C9U G28A", "self-cleavage": 0.562}
{"variant": "C9U C19A", "self-cleavage": 0.0695}
{"variant": "C9U C19U", "self-cleavage": 0.226}
{"variant": "C9U A10U", "self-cleavage": 0.399}
{"variant": "C9U A10C", "self-cleavage": 0.948}
{"variant": "C9U A22G", "self-cleavage": 0.0671}
{"variant": "C9U A22C", "self-cleavage": 0.779}
{"variant": "C9U A22U", "self-cleavage": 0.313}
{"variant": "C8U U31C", "self-cleavage": 0.713}
{"variant": "C8U C21G", "self-cleavage": 0.0658}
{"variant": "C8U C21U", "self-cleavage": 0.0732}
{"variant": "C9G C21A", "self-cleavage": 0.0451}
{"variant": "C9A G16U", "self-cleavage": 0.254}
{"variant": "C9A C19U", "self-cleavage": 0.197}
{"variant": "C8G A22C", "self-cleavage": 0.437}
{"variant": "C8G G38A", "self-cleavage": 0.325}
{"variant": "C8A C26G", "self-cleavage": 0.0829}
{"variant": "C8A C26A", "self-cleavage": 0.106}
{"variant": "C9A G13U", "self-cleavage": 0.927}
{"variant": "C8G G24U", "self-cleavage": 0.747}
{"variant": "C9U C21A", "self-cleavage": 0.0683}
{"variant": "C8A U12C", "self-cleavage": 0.504}
{"variant": "C8A U12G", "self-cleavage": 0.213}
{"variant": "C9G A33U", "self-cleavage": 0.689}
{"variant": "C9G A33G", "self-cleavage": 0.548}
{"variant": "C9G A33C", "self-cleavage": 0.548}
{"variant": "C9G A11U", "self-cleavage": 0.985}
{"variant": "C9G A11G", "self-cleavage": 0.715}
{"variant": "C8A G45A", "self-cleavage": 0.203}
{"variant": "C8A G45U", "self-cleavage": 0.176}
{"variant": "C8A G45C", "self-cleavage": 0.141}
{"variant": "C9U A35U", "self-cleavage": 0.767}
{"variant": "A10C A22G", "self-cleavage": 0.256}
{"variant": "A10C A22U", "self-cleavage": 0.78}
{"variant": "C9U U37C", "self-cleavage": 0.122}
{"variant": "C9U U37A", "self-cleavage": 0.26}
{"variant": "C9U U37G", "self-cleavage": 0.419}
{"variant": "A10C A33G", "self-cleavage": 1.04}
{"variant": "A10C A33U", "self-cleavage": 1.08}
{"variant": "C8A U37A", "self-cleavage": 0.225}
{"variant": "C8G A30C", "self-cleavage": 0.122}
{"variant": "C8G A30G", "self-cleavage": 0.643}
{"variant": "C8G A30U", "self-cleavage": 0.409}
{"variant": "C8U U37G", "self-cleavage": 0.382}
{"variant": "C9U G42A", "self-cleavage": 0.153}
{"variant": "C8U G29A", "self-cleavage": 0.516}
{"variant": "C8U G29U", "self-cleavage": 0.577}
{"variant": "C9U C26A", "self-cleavage": 0.0658}
{"variant": "C9U C26G", "self-cleavage": 0.0629}
{"variant": "C9U C26U", "self-cleavage": 0.086}
{"variant": "C9A C25A", "self-cleavage": 0.0586}
{"variant": "C9U C15G", "self-cleavage": 0.0427}
{"variant": "C9G A30G", "self-cleavage": 0.791}
{"variant": "C9A U37A", "self-cleavage": 0.233}
{"variant": "C9A U37G", "self-cleavage": 0.33}
{"variant": "C9A G36U", "self-cleavage": 0.0953}
{"variant": "C9A G36A", "self-cleavage": 0.178}
{"variant": "C8G G48A", "self-cleavage": 0.227}
{"variant": "C8G C25U", "self-cleavage": 0.112}
{"variant": "C8G C14U", "self-cleavage": 0.625}
{"variant": "C9G G44U", "self-cleavage": 0.427}
{"variant": "C9G G44A", "self-cleavage": 0.731}
{"variant": "C9A A34C", "self-cleavage": 0.18}
{"variant": "C8A G38A", "self-cleavage": 0.343}
{"variant": "C8A G38C", "self-cleavage": 0.161}
{"variant": "C8U G43A", "self-cleavage": 0.145}
{"variant": "C8U G43C", "self-cleavage": 0.101}
{"variant": "C8U A23C", "self-cleavage": 0.0653}
{"variant": "C9G G48U", "self-cleavage": 0.377}
{"variant": "C8A G13C", "self-cleavage": 0.0783}
{"variant": "C9A A11G", "self-cleavage": 0.735}
{"variant": "C9A A11U", "self-cleavage": 0.767}
{"variant": "C9A A11C", "self-cleavage": 1.03}
{"variant": "C9A C15G", "self-cleavage": 0.0772}
{"variant": "C8G A23C", "self-cleavage": 0.0689}
{"variant": "C8U G28U", "self-cleavage": 0.467}
{"variant": "C9U G41C", "self-cleavage": 0.128}
{"variant": "A10C A35U", "self-cleavage": 1.04}
{"variant": "A10C A35C", "self-cleavage": 1.08}
{"variant": "C9G A32G", "self-cleavage": 0.731}
{"variant": "C9G A32C", "self-cleavage": 0.195}
{"variant": "C9G C14G", "self-cleavage": 0.0866}
{"variant": "C8A C46U", "self-cleavage": 0.46}
{"variant": "C8A C25A", "self-cleavage": 0.0389}
{"variant": "C9A G24C", "self-cleavage": 0.119}
{"variant": "C8A G39U", "self-cleavage": 0.123}
{"variant": "C8U G41A", "self-cleavage": 0.112}
{"variant": "C9A U31G", "self-cleavage": 0.777}
{"variant": "C9A U31C", "self-cleavage": 0.765}
{"variant": "C9G U12A", "self-cleavage": 0.968}
{"variant": "C9U A34C", "self-cleavage": 0.131}
{"variant": "A10C", "self-cleavage": 1.01}
{"variant": "C9U G39A", "self-cleavage": 0.139}
{"variant": "C8G U31G", "self-cleavage": 0.464}
{"variant": "C9G G43U", "self-cleavage": 0.134}
{"variant": "C9A U12A", "self-cleavage": 0.916}
{"variant": "C9A U12G", "self-cleavage": 0.417}
{"variant": "C8U G38C", "self-cleavage": 0.644}
{"variant": "C9G G28U", "self-cleavage": 0.428}
{"variant": "C9G G28C", "self-cleavage": 0.495}
{"variant": "C9G G28A", "self-cleavage": 0.512}
{"variant": "C9G G39U", "self-cleavage": 0.147}
{"variant": "C9G G39A", "self-cleavage": 0.137}
{"variant": "C8U G44U", "self-cleavage": 0.603}
{"variant": "C9U G17C", "self-cleavage": 0.0426}
{"variant": "C9U G17U", "self-cleavage": 0.102}
{"variant": "C8U U12G", "self-cleavage": 0.429}
{"variant": "C9G U31G", "self-cleavage": 0.781}
{"variant": "C9G U31C", "self-cleavage": 0.722}
{"variant": "C8A G28A", "self-cleavage": 0.281}
{"variant": "C9G A10G", "self-cleavage": 0.656}
{"variant": "C9G A10C", "self-cleavage": 0.857}
{"variant": "C9G A10U", "self-cleavage": 0.859}
{"variant": "A10C A34G", "self-cleavage": 0.88}
{"variant": "A10C A34C", "self-cleavage": 0.283}
{"variant": "A10C A34U", "self-cleavage": 0.951}
{"variant": "C9G A23C", "self-cleavage": 0.0567}
{"variant": "C8U C20A", "self-cleavage": 0.0588}
{"variant": "C9U G29A", "self-cleavage": 0.635}
{"variant": "C9U U18A", "self-cleavage": 0.0726}
{"variant": "C9U U18C", "self-cleavage": 0.0748}
{"variant": "C9U U18G", "self-cleavage": 0.059}
{"variant": "C9A A32U", "self-cleavage": 0.558}
{"variant": "C8G G39U", "self-cleavage": 0.129}
{"variant": "C9G C46A", "self-cleavage": 0.376}
{"variant": "C9G C46U", "self-cleavage": 0.609}
{"variant": "C8A G48U", "self-cleavage": 0.257}
{"variant": "C8A G48A", "self-cleavage": 0.215}
{"variant": "C8A G48C", "self-cleavage": 0.346}
{"variant": "A10C A30U", "self-cleavage": 1.11}
{"variant": "C8A G17A", "self-cleavage": 0.12}
{"variant": "C8A G17C", "self-cleavage": 0.0615}
{"variant": "C8A G17U", "self-cleavage": 0.0971}
{"variant": "C9A G45U", "self-cleavage": 0.232}
{"variant": "C8G C20U", "self-cleavage": 0.0992}
